According to PMC5431883, “Enhancing Specific Disruption of Intracellular Protein Complexes by Hydrocarbon Stapled Peptides Using Lipid Based Delivery” (Scientific Reports, 2017):
Positions of bridges follow the written chain, without caps; N, C: chain ends. Non-standard residues stand in square brackets, D forms with d. R8 = C=CCCCCCC[C@@](C)(N)C(=O)O; S5 = C=CCCC[C@](C)(N)C(=O)O; Ahx = NCCCCCC(=O)O

Tests used:
Mdm2 joined to HaloTag [1] = target: T1, Mdm2 joined to HaloTag (UniProt Q00987 1-491, HaloTag covalently labelled with a cell permeable fluorogenic substrate); assay: FRET or BRET; nanoBRET in live HEK293 cells transfected with p53-nanoLUC and Mdm2-HaloTag; stapled peptide titrated (10 points), 10% FCS, signal after 4 hours; details: one partner purified
T1 construct: Mdm2 of the p53:Mdm2 NanoBRET System (Promega); Construct of a bought kit (Promega); source: HEK293, transiently transfected, in live cells

Mdm2 joined to HaloTag [2] = target: T1, Mdm2 joined to HaloTag; assay: FRET or BRET; nanoBRET in live HEK293 cells transfected with p53-nanoLUC and Mdm2-HaloTag; stapled peptide titrated (10 points), 0% FCS, signal after 4 hours; details: one partner purified
Mdm2 (1-125) [3] = target: T2, Mdm2 (1-125) (UniProt Q00987 1-125); assay: fluorescence polarisation; competitive fluorescence anisotropy (FA) assay on Mdm2 (1-125); Kd determined from the competition; details in the supplementary information; details: both partners purified
T2 construct: Mdm2, residues 1-125; source: expressed and purified (host and procedure in the supplementary information)

Mdm2 (1-125) [4] = target: T2, Mdm2 (1-125); assay: cell-based or functional assay

T2 sequence (Q00987 1-125): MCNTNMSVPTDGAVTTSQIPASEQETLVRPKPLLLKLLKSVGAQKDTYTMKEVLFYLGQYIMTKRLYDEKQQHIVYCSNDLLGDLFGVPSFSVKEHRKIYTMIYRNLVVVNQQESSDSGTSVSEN
T1 sequence (Q00987 whole entry): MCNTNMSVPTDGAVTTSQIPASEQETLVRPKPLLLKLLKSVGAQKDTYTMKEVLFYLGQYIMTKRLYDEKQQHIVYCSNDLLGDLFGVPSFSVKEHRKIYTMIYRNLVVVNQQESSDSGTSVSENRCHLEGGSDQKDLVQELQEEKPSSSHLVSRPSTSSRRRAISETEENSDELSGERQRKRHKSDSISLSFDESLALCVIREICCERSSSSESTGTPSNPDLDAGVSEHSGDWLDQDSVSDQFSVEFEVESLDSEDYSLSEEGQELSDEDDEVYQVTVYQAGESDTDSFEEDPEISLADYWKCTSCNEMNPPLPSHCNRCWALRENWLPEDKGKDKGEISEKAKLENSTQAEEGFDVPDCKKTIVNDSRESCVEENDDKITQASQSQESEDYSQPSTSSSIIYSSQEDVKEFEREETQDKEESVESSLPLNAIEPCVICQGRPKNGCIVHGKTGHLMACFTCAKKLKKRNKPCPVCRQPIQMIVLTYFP

- IC50 (Mdm2 joined to HaloTag [1]): 17.5 ± 1.3 µM
- IC50 (Mdm2 joined to HaloTag [2]): 3.9 ± 0.2 µM
- Kd (Mdm2 (1-125) [3]): 24.4 ± 2.3 µM
- EC50 of p53 activation, T22 p53 reporter cells (β-galactosidase), 0% FCS; blocks Mdm2:p53 (Mdm2 (1-125) [4]): 0.8 µM
- EC50 of p53 activation, T22 p53 reporter cells (β-galactosidase), 10% FCS; blocks Mdm2:p53 (Mdm2 (1-125) [4]): 10 µM
B1: VIP-82 (peptide)
chain: Ac-KK[Ahx]TSF[R8]EYWALL[S5]ENF-NH2
modifications: staple 7-14
